Where no end group is shown, it is not given here.
B1: Phage-2913 (peptide)
peptide: GERWCTPPWMCVGL
notes: also called peptide-180 library clone
B2: Phage-2915 (peptide)
peptide: GGLLCKPAWMCNWL
notes: as for B1
B3: Phage-2911 (peptide)
peptide: EKPVCVPSWMCTGF
notes: as for B1
B4: Phage-2918 (peptide)
peptide: LPRICVPEWMCLGF
notes: as for B1
B5: Phage-2912 (peptide)
peptide: AVHYCQPSWMCTGF
notes: as for B1
B6: Phage-2910 (peptide)
peptide: AVPLCMPKWMCTGF
notes: as for B1
B7: Phage-2907 (peptide)
peptide: AEMRCIPEWMCSGF
notes: as for B1
B8: Phage-2908 (peptide)
peptide: LGLACIPEWMCVGF
notes: as for B1
B9: Phage-2917 (peptide)
peptide: LDVLCKPTWMCMGF
notes: as for B1
B10: Phage-2916 (peptide)
peptide: VDRMCVPKWMCEGL
notes: as for B1
B11: Phage-2919 (peptide)
peptide: VDPMCIPRWMCSFL
notes: as for B1
B12: Phage-2914 (peptide)
peptide: GLALCKPEWMCIGF
notes: as for B1
B13: Phage-2909 (peptide)
peptide: GEPVCKPAWMCEGF
notes: as for B1
B14: Phage-2906 (peptide)
peptide: VEPSCVPYWMCLGF
modifications: cysteine pairing not given here; also: peptide displayed as fusion to phage pIII
notes: as for B1
B15: Phage-2931 (peptide)
peptide: VEQMCKPEWMCKGF
notes: tested as crude phage supernatant
B16: Phage-2927 (peptide)
peptide: IKPFCVPEWMCVAL
notes: as for B15
B17: Phage-2924 (peptide)
peptide: VGKMCVPEWMCHGF
notes: as for B15
B18: Phage-2925 (peptide)
peptide: TPIFCVPAWMCSGF
notes: as for B15
B19: Phage-2923 (as printed at r2443/r2444; SEQ ID NO: 3238) (peptide)
peptide: VWPRCEPQWMCAGF
modifications: cysteine pairing not given here; also: peptide displayed as fusion to phage pIII
notes: tested as crude phage supernatant; The label 2923 is printed twice (r2444 and r2446); by the order this row is probably Phage-2922; also called probably Phage-2922
B20: Phage-2921 (peptide)
peptide: ISHMCKPVWMCSGL
notes: as for B15
B21: Phage-2923 (peptide)
peptide: VPKMCTPPWMCWGF
notes: as for B15
B22: Phage-2929 (peptide)
peptide: NIPHCVPAWMCIGF
notes: as for B15
B23: Phage-2930 (peptide)
peptide: TQALCVPSWMCDGF
notes: as for B15
B24: Phage-2926 (peptide)
peptide: VDRMCKPTWMCEGF
notes: as for B15
B25: Phage-2928 (peptide)
peptide: IVPACKPVWMCDGF
notes: as for B15
B26: Phage-2920 (peptide)
peptide: LAIMCRPAWMCSGF
notes: as for B15
B27: Phage-2933 (peptide)
peptide: VERACVPVWMCEGF
notes: as for B15
B28: Phage-2932 (peptide)
peptide: MHMLCRPAWMCSGF
notes: as for B15
B29: Phage-2934 (peptide)
peptide: EFNWCRPLWMCVGF
modifications: cysteine pairing not given here; also: peptide displayed as fusion to phage pIII
notes: Peptide-180 library clone, tested as clonal phage (peptide fused to pIII of the bacteriophage)
B30: Phage-2900 (peptide)
peptide: PWLMCKPAWMCTGF
B31: Phage-2904 (peptide)
peptide: VFPACVPNWMCVGF
B32: Phage-2902 (peptide)
peptide: QTVMCRPAWMCVGF
B33: Phage-2896 (peptide)
peptide: IERMCRPAWMCDGF
B34: Phage-2893 (peptide)
peptide: ALPQCVPAWMCLGF
B35: Phage-2895 (peptide)
peptide: QALMCVPEWMCLGF
B36: Phage-2894 (peptide)
peptide: VLKMCEPLWMCVGF
B37: Phage-2903 (peptide)
peptide: VTPACVPTWMCYGF
B38: Phage-2905 (peptide)
peptide: PSHYCVPAWMCAGF
modifications: cysteine pairing not given here; also: peptide displayed as fusion to phage pIII
B39: Phage-2899 (peptide)
peptide: MEIRCTPPWMCMGF
B40: Phage-2901 (peptide)
peptide: VTPKCVPMWMCAGF
B41: Phage-2898 (peptide)
peptide: NWPVCKPMWMCTGF
B42: Phage-2892 (peptide)
peptide: ETPFCIPQWMCDGF
B43: Phage-2897 (peptide)
peptide: HDKLCRPAWMCNGF

What follows are binders tested against T1, Anti-PSMA Fab (assay: phage ELISA; biotinylated PSMA Fab on neutravidin plate, clonal phage supernatant, anti-M13-HRP detection;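 note: wells were preincubated with blocking buffer containing PSMA antigen or with blocking buffer only, then phage supernatant was added without washing for a brief incubation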).
T1 construct: Biotinylated and captured on neutravidin coated plates in the panning ELISA; also called 006 PSMA Fab
Experimental: (§1) Clonal phage were harvested as crude supernatants and screened via standard ELISAs. […] Prior to the addition of clonal phage. wells were incubated with blocking buffer and PSMA antigen or blocking buffer alone. Without washing or aspirating, clonal phage supernatants were then added to the wells and incubated for a short time. Wells were then washed followed by detection of bound phage using a horse radish conjugated anti-M13 antibody.

Row | Binder | Phage binding ELISA signal, Anti-PSMA Fab
1 | B1 | 2.32
2 | B2 | 2.32
3 | B3 | 2.33
4 | B4 | 2.32
5 | B5 | 2.33
6 | B6 | 2.33
7 | B7 | 2.33
8 | B8 | 2.33
9 | B9 | 2.32
10 | B10 | 2.32
11 | B11 | 2.32
12 | B12 | 2.32
13 | B13 | 2.33
14 | B14 | 2.33

These binders were tested against T2, PSMA Fab (006 PSMA Fab) (assay: phage ELISA; clonal phage supernatant on biotinylated PSMA Fab captured on neutravidin plate, anti-M13 HRP detection).
T2 construct: also called Anti-PSMA Fab; anti-PSMA Fab
Experimental: as §1

Row | Binder | Phage binding ELISA signal, Anti-PSMA Fab
15 | B15 | 2.3
16 | B16 | 2.31
17 | B17 | 2.31
18 | B18 | 2.31
19 | B19 | 2.31
20 | B20 | 2.31
21 | B21 | 2.31
22 | B22 | 2.31
23 | B23 | 2.3
24 | B24 | 2.31
25 | B25 | 2.31
26 | B26 | 2.31
27 | B27 | 2.29
28 | B28 | 2.29

The binders below were run against T3, 006 PSMA Fab (biotinylated (site not stated)) (assay: clonal phage ELISA on captured PSMA Fab, wells pre-incubated with PSMA antigen as competitor).
T3 construct: also called Anti-PSMA Fab

Row | Binder | Phage binding ELISA signal, Anti-PSMA Fab in presence of PSMA
29 | B29 | 0.157

What follows are binders tested against T1, Anti-PSMA Fab (assay: phage ELISA; PSMA Fab on plate pre-incubated with PSMA antigen (competitor), anti-M13-HRP detection).
Experimental: as §1

Row | Binder | Phage binding ELISA signal, Anti-PSMA Fab in presence of PSMA
30 | B1 | 0.116
31 | B2 | 0.116
32 | B3 | 0.098
33 | B4 | 0.0919
34 | B5 | 0.0814
35 | B6 | 0.0971
36 | B7 | 0.118
37 | B8 | 0.0789
38 | B9 | 0.0821
39 | B10 | 0.0971
40 | B11 | 0.0867
41 | B12 | 0.0815
42 | B13 | 0.128
43 | B14 | 0.0835

These binders were tested against T2, PSMA Fab (006 PSMA Fab) (assay: phage ELISA; clonal phage on plate-captured PSMA Fab pre-incubated with PSMA antigen as competitor, anti-M13 HRP detection).
Experimental: as §1

Row | Binder | Phage binding ELISA signal, Anti-PSMA Fab with PSMA antigen
44 | B15 | 0.109
45 | B16 | 0.121
46 | B17 | 0.082
47 | B18 | 0.0946
48 | B19 | 0.0854
49 | B20 | 0.125
50 | B21 | 0.0934
51 | B22 | 0.109
52 | B23 | 0.0747
53 | B24 | 0.12
54 | B25 | 0.11
55 | B26 | 0.112
56 | B27 | 0.11
57 | B28 | 0.21

These binders were tested against T4, PSMA Fab (assay: clonal phage ELISA on captured PSMA Fab, wells pre-incubated with PSMA antigen as competitor, anti-M13-HRP detection;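 note: crude clonal phage supernatants added without washing after the PSMA preincubation, comparison wells received blocking buffer alone without PSMA, bound phage read after washing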).
T4 construct: Biotinylated and captured on neutravidin plates in the phage ELISA; also called anti-PSMA Fab; 006 PSMA Fab
Experimental: as §1

Row | Binder | phage binding ELISA signal in presence of PSMA
58 | B30 | 0.183
59 | B31 | 0.129
60 | B32 | 0.092
61 | B33 | 0.188
62 | B34 | 0.0796
63 | B35 | 0.1
64 | B36 | 0.117
65 | B37 | 0.116
66 | B38 | 0.0875
67 | B39 | 0.0795
68 | B40 | 0.123
69 | B41 | 0.155
70 | B42 | 0.123
71 | B43 | 0.107

What follows are binders tested against T3, 006 PSMA Fab (assay: clonal phage ELISA on biotinylated PSMA Fab captured on neutravidin, anti-M13-HRP detection;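 note: crude clonal phage supernatants added to wells preincubated with PSMA antigen in blocking buffer or with blocking buffer alone, brief binding period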).
Experimental: as §1

Row | Binder | Phage binding ELISA signal, Anti-PSMA Fab
72 | B29 | 2.29

Each binder was assayed against T4, PSMA Fab (assay: clonal phage ELISA on biotinylated PSMA Fab captured on neutravidin plates, anti-M13-HRP detection, no PSMA antigen).
Experimental: as §1

Row | Binder | phage binding ELISA signal
73 | B30 | 2.34
74 | B31 | 2.33
75 | B32 | 2.34
76 | B33 | 2.35
77 | B34 | 2.35
78 | B35 | 2.35
79 | B36 | 2.35
80 | B37 | 2.34
81 | B38 | 2.33
82 | B39 | 2.34
83 | B40 | 2.34
84 | B41 | 2.34
85 | B42 | 2.35
86 | B43 | 2.35
